{
  "source": "patent US20030147861A1",
  "about": "“Compounds and methods for the modulation of immune responses” (Genesis Research and Development Corporation Limited, priority 2001, published 2003)",
  "molecules": {"B1": {"name": "GV-45: recombinant M. vaccae antigen, amino acid sequence SEQ ID NO: 52 (protein, listed as Mycobacterium vaccae)", "chain": "MNKAELIDVLTEKLGSDRRQATAAVENVVDTIVRAVHKGESVTITGFGVFEQRRRAARVARNPRTGETVKVKPTSVPAFRPGAQFKAVVSGAQKLPAEGPAVKRGVTATSTARKAAKKAPAKKAAAKKAAPAKKAPAKKAATKAAPAKKATAAKKAAPAKKATAAKKAAPAKKAPAKKAATKAAPAKKAPAKKAATKAAPAKKAPAAKKAPAKKAPAKRGGRK"}, "B2": {"name": "GV-33: recombinant M. vaccae antigen, amino acid sequence SEQ ID NO: 44 (protein, listed as Mycobacterium vaccae)", "chain": "MVRAALRYGFGTASLLAGGFVLRALQGTPAALGATPGEVAPVARRSPNYRDGKFVNLEPPSGITMDRDLQRMLLRDLANAASQGKPPGPIPLAEPPKGDPTPAPAAASWYGHSSVLIEVDGYRVLADPVWSNRCSPSRAVGPQRMHDVPVPLEALPAVDAVVISHDHYDHLDIDTIVALAHTQRAPFVVPLGIGAHLRKWGVPEARIVELDWHEAHRIDDLTLVCTPARHFSGRLFSRDSTLWASWVVTGSSHKAFFGGDTGYTKSFAEIGDEYGPFDLTLLPIGAYHPAFADIHMNPEEAVRAHLDLTEVDNSLMVPIHWATFRLAPHPWSEPAERLLTAADAERVRLTVPIPGQRVDPESTFDPWWRF"}, "B3": {"name": "GV-35: recombinant M. vaccae antigen, amino acid sequence SEQ ID NO: 45 (protein, listed as Mycobacterium vaccae)", "chain": "MKANHSGCYKSAGPIWSHPSPLCSPALAPSHAGLDNELSLGVHGQGPEHLTIQQWDTFLNGVFPLDRNRLTREWFHSGKATYVVAGEGADEFEGTLELGYHVGFPWSLGVGINFSYTTPNITYDGYGLNFADPLLGFGDSIVTPPLFPGVSITADLGNGPGIQEVATFSVDVAGPGGSVVVSNAHGTVTGAAGGVLLRPFARLISSTGDSVTTYGAPLKHELTTSRWRPPGVNRGPLHAGREAPEVRSKWPTAANACARDSSSLTQGLVVVECHPVTPPHRPRRDGRGSGVWAPALGTYGGDRRRDVTSVAVFAGNPDGPAESPHPSSEPGGSKEF"}},
  "key": {"[1]": {"tested_on": "MAP kinase signaling pathway in THP-1 cells (IL-10 production)", "assay": "AVAC-induced IL-10 production by THP-1 cells pre-treated with MAP kinase inhibitors (ELISA)", "type": "cell-based, human", "settings": "inhibitor pre-treatment 120 minutes; 25 μg/mL AVAC, 24 hours", "method": "The involvement of the MAP kinase signaling pathway in the production of IL-10 by THP-1 cells in response to AVAC was assessed as follows.\nPrior to culture with AVAC, 50 μL of THP-1 cells in cRPMI-10 were pre-treated in duplicate microplate wells with 50 μL of serially diluted PD98059 (Calbiochem cat. no. 51300, a selective inhibitor of MAP kinase), SB202190 (Calbiochem cat. no. 559388, an inhibitor of p38 MAP kinase and p38β MAP kinase), SB203580 (Calbiochem cat. no. 559389, a highly specific inhibitor of p38 MAP kinase), with SB202474 (Calbiochem cat. no. 559387, a negative control for MAP kinase inhibition studies), or with no added chemicals. MAP kinase inhibitors and control were used at a final concentration of 100 μg/mL, 20 μg/mL, 4.0 μg/mL, 0.8 μg/mL, 0.16 μg/mL, or […]. Pretreatment of cells with MAP kinase inhibitors and control was for 120 minutes in a water-jacketed, humidified incubator at 37° C. supplied with 5% CO2 in air.\nFollowing pretreatment, the cells were washed once in cPRMI-10 to remove inhibitor or control chemicals. […] IL-10 content in the microculture supernatants was determined by sandwich ELISA using a commercially available set (eBioscience cat. no. 88-7106-77,) according to the manufacturer's recommendations. […]"}, "[2]": {"tested_on": "CD40, CD80 and CD86 on dendritic cells", "type": "cell-based, human"}, "[3]": {"tested_on": "CD69 on αβT cells, γδT cells and NK cells", "type": "cell-based, human"}, "[4]": {"tested_on": "CD40, CD80 and CD86 on B cells", "assay": "CD40, CD80 and CD86 expression on B cells (3 color flow cytometry)", "type": "cell-based, human", "settings": "20 ug/ml, 48 hours, vs non-stimulated cells", "excerpt": "(§1) Stimulated cells were harvested and analyzed for up-regulation of CD40, CD80 and CD86 using 3 color flow cytometric analysis. Tables 16, 17 and 18 show the fold increase in mean fluorescence intensity from control (non-stimulated cells) for dendritic cells, monocytes, and B cells, respectively."}, "[5]": {"tested_on": "IL-1β, TNF-α, IL-12 and IFN-γ production in PBMC", "assay": "Cytokine production in PBMC from normal donors (ELISA)", "type": "cell-based, human"}, "[6]": {"tested_on": "CD40, CD80 and CD86 on monocytes", "assay": "CD40, CD80 and CD86 expression on monocytes (3 color flow cytometry)", "type": "cell-based, human", "settings": "20 ug/ml, 48 hours, vs non-stimulated cells", "excerpt": "as §1"}, "[7]": {"tested_on": "popliteal lymph node cells", "assay": "Proliferation of lymph node cells from GV protein-immunized mice", "type": "cell-based, female BALB/cByJ mice", "settings": "lymph node cells of mice immunized with 10 μg of the same GV protein in IFA", "method": "(§2) The immunogenicity of Mycobacterium vaccae recombinant proteins (referred to herein as GV recombinant proteins) was tested by injecting female BALB/cByJ mice in each hind foot-pad with 10 μg of recombinant GV proteins emulsified in incomplete Freund's adjuvant (IFA). Control mice received phosphate buffered saline in IFA. The draining popliteal lymph nodes were excised 10 days later and the cells obtained therefrom were stimulated with the immunizing GV protein and assayed for proliferation by measuring the uptake of tritiated thymidine. The amount of interferon gamma (IFNγ) produced and secreted by these cells into the culture supernatants was assayed by standard enzyme-linked immunoassay."}, "[8]": {"tested_on": "IFNγ production by lymph node cells", "assay": "IFNγ production by lymph node cells from GV protein-immunized mice (enzyme-linked immunoassay)", "type": "cell-based, female BALB/cByJ mice", "settings": "lymph node cells of mice immunized with the same GV protein", "method": "as §2"}, "[9]": {"settings": "dendritic cells, 20 ug/ml, 48 hours, vs non-stimulated cells"}, "[10]": {"settings": "Dose of GV protein used in vitro 0.08 μg/ml"}, "[11]": {"settings": "Dose of GV protein used in vitro 2 μg/ml"}, "[12]": {"settings": "Dose of GV protein used in vitro 50 μg/ml"}},
  "data": [
    {"molecule": "Oc1ccc(-c2nc(-c3ccncc3)c(-c3ccc(F)cc3)[nH]2)cc1", "note": "[SB202190]", "values": [
      {"measurement": "suppression of AVAC-induced production of IL-10 by THP-1 cells", "setting": "[1]", "value": "substantially suppressed in a dose-dependent manner"}
    ]},
    {"molecule": "C[S+]([O-])c1ccc(-c2nc(-c3ccncc3)c(-c3ccc(F)cc3)[nH]2)cc1", "note": "(stereo not drawn) [SB203580]", "values": [
      {"measurement": "suppression of AVAC-induced production of IL-10 by THP-1 cells", "setting": "[1]", "value": "substantially suppressed in a dose-dependent manner"}
    ]},
    {"molecule": "cholera toxin [reference compound]", "values": [
      {"measurement": "CD40, CD80 and CD86 expression in dendritic cells, comparison with adjuvants", "setting": "[2]", "value": "modest"},
      {"measurement": "CD69 expression on NK cells, comparison with adjuvants", "setting": "[3]", "value": "did not"}
    ]},
    {"molecule": "B1", "values": [
      {"measurement": "CD40, CD80 and CD86 expression on dendritic cells", "setting": "[2]; 20 ug/ml, 48 hours, T cell-depleted PBMC", "value": "highest levels of expression"},
      {"measurement": "CD40 expression, fold increase in mean fluorescence intensity from control", "setting": "[2]; [9]", "value": 5.8, "unit": "fold"},
      {"measurement": "CD80 expression, fold increase in mean fluorescence intensity from control", "setting": "[2]; [9]", "value": 3.0, "unit": "fold"},
      {"measurement": "CD86 expression, fold increase in mean fluorescence intensity from control", "setting": "[2]; [9]", "value": 3.1, "unit": "fold"},
      {"measurement": "CD40 expression, fold increase in mean fluorescence intensity from control", "setting": "[4]", "value": 1.2, "unit": "fold"},
      {"measurement": "CD80 expression, fold increase in mean fluorescence intensity from control", "setting": "[4]", "value": 1.1, "unit": "fold"},
      {"measurement": "CD86 expression, fold increase in mean fluorescence intensity from control", "setting": "[4]", "value": 1.3, "unit": "fold"},
      {"measurement": "production of IL-1β, TNF-α, IL-12 and IFN-γ by PBMC", "setting": "[5]", "value": "stimulate the production of IL-1β, TNF-α and IL-12"},
      {"measurement": "percentage of αβT cells expressing CD69", "setting": "[3]; PBMC from normal donors, 20 ug/ml, 24 hours, control 3.8", "value": 11.7, "unit": "%"},
      {"measurement": "percentage of NK cells expressing CD69", "setting": "[3]; PBMC from normal donors, 20 ug/ml, 24 hours, control 4.8", "value": 6.3, "unit": "%"},
      {"measurement": "percentage of γδT cells expressing CD69", "setting": "[3]; PBMC from normal donors, 20 ug/ml, 24 hours, control 6.2", "value": 4.9, "unit": "%"},
      {"measurement": "CD40 expression, fold increase in mean fluorescence intensity from control", "setting": "[6]", "value": 1.6, "unit": "fold"},
      {"measurement": "CD80 expression, fold increase in mean fluorescence intensity from control", "setting": "[6]", "value": 1.2, "unit": "fold"},
      {"measurement": "CD86 expression, fold increase in mean fluorescence intensity from control", "setting": "[6]", "value": 1.0, "unit": "fold"},
      {"measurement": "Proliferation (cpm)", "setting": "[7]; [10]", "value": "1,497 ± 199 cpm"},
      {"measurement": "Proliferation (cpm)", "setting": "[7]; [11]", "value": "3,683 ± 1,127 cpm"},
      {"measurement": "Proliferation (cpm)", "setting": "[7]; [12]", "value": "9,554 ± 482 cpm"}
    ]},
    {"molecule": "B2", "values": [
      {"measurement": "IFNγ", "setting": "[8]; [11]", "value": "1.52 ± 0.24", "unit": "ng/mL"},
      {"measurement": "IFNγ", "setting": "[8]; Dose of GV protein used in vitro 10 μg/ml", "value": "8.44 ± 2.35", "unit": "ng/mL"},
      {"measurement": "IFNγ", "setting": "[8]; [12]", "value": "7.71 ± 0.26", "unit": "ng/mL"},
      {"measurement": "Proliferation (cpm)", "setting": "[7]; [10]", "value": "8,764 ± 256 cpm"},
      {"measurement": "Proliferation (cpm)", "setting": "[7]; [11]", "value": "27,529 ± 1,238 cpm"},
      {"measurement": "Proliferation (cpm)", "setting": "[7]; [12]", "value": "41,529 ± 1,919 cpm"}
    ]},
    {"molecule": "B3", "values": [
      {"measurement": "Proliferation (cpm)", "setting": "[7]; [10]", "value": "1,626 ± 406 cpm"},
      {"measurement": "Proliferation (cpm)", "setting": "[7]; [11]", "value": "9,968 ± 314 cpm"},
      {"measurement": "Proliferation (cpm)", "setting": "[7]; [12]", "value": "29,163 ± 2,693 cpm"}
    ]}
  ]
}
